According to paper PMC7954794, “Protein context shapes the specificity of SH3 domain-mediated interactions in vivo” (Nature Communications, 2021):

Experiments:
Abp1 (1xFLAG) = test: Western blot expression level of Abp1 SH3-swapped baits (Fig. S2A-B); type: cell-based, Saccharomyces cerevisiae; design: Flag (2 bands): unit not given here; details: sheet FigS2A-B; for Ratio Swap/WT Flag: Flag signal relative to Abp1 WT (Abp1-1 to Abp1-4 = 1); for Flag (2 bands): Western blot Flag signal (2 bands), Abp1 WT, SH3-deleted or SH3-swapped
Outline: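 Yeast expressing DHFR F[1,2]-FLAG-tagged baits grown in synthetic complete medium at 30 °C to OD600 ~1.0, lysed with glass beads in Tris pH 7.4/150 mM NaCl/1% Triton X-100. Baits immunoprecipitated on FLAG-M2 beads 120 min at 4 °C, resolved on 10% SDS-PAGE, probed with anti-FLAG HRP (ECL), signals quantified by imager.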

[1] = test system: growth of yeast strains under 51 stress conditions; test: Growth assays in 51 stress conditions (Fig. 1E-F, S2D, S5B); type: cell-based, Saccharomyces cerevisiae; design: key to Growth (Fig. S2D) / growth of ABP1 SH3-swapped strains in stress condition: log2 colony size, average of median per strain (growth score); details: for Growth (Fig. S2D): ABP1 SH3-swapped strains
Outline: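 Colony sizes at 74 h on 51 stress media (37 °C) were log2 transformed, corrected for plate effects, and averaged across two plates as per-plate medians (growth score). Strains arrayed in 12 replicates with WT border, grown first on YPD for two days at 30 °C.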

B1: BBC1: yeast SH3-containing protein; SH3-deleted or knockout strain (protein, UniProt P47068 1-1157, looked up)
Myosin tail …: MSEPEVPFKVVAQFPYKSDYEDDLNFEKDQEIIVTSVEDAEWYFGEYQDSNGDVIEGIFPKSFVAVQGSEVGKEAESSPNTGSTEQRTIQPEVEQKDLPEPISPETKKETLSGPVPVPAATVPVPAATVPVPAATAVSAQVQHDSSSGNGERKVPMDSPKLKARLSMFNQDITEQVPLPKSTHLDLENIPVKKTIVADAPKYYVPPGIPTNDTSNLERKKSLKENEKKIVPEPINRAQVESGRIETENDQLKKDLPQMSLKERIALLQEQQRLQAAREEELLRKKAKLEQEHERSAVNKNEPYTETEEAEENEKTEPKPEFTPETEHNEEPQMELLAHKEITKTSREADEGTNDIEKEQFLDEYTKENQKVEESQADEARGENVAEESEIGYGHEDREGDNDEEKEEEDSEENRRAALRERMAKLSGASRFGAPVGFNPFGMASGVGNKPSEEPKKKQHKEKEEEEPEQLQELPRAIPVMPFVDPSSNPFFRKSNLSEKNQPTETKTLDPHATTEHEQKQEHGTHAYHNLAAVDNAHPEYSDHDSDEDTDDHEFEDANDGLRKHSMVEQAFQIGNNESENVNSGEKIYPQEPPISHRTAEVSHDIENSSQNTTGNVLPVSSPQTRVARNGSINSLTKSISGENRRKSINEYHDTVSTNSSALTETAQDISMAAPAAPVLSKVSHPEDKVPPHPVPSAPSAPPVPSAPSVPSAPPVPPAPPALSAPSVPPVPPVPPVSSAPPALSAPSIPPVPPTPPAPPAPPAPLALPKHNEVEEHVKSSAPLPPVSEEYHPMPNTAPPLPRAPPVPPATFEFDSEPTATHSHTAPSPPPHQNVTASTPSMMSTQQRVPTSVLSGAEKESRTLPPHVPSLTNRPVDSFHESDTTPKVASIRRSTTHDVGEISNNVKIEFNAQERWWINKSAPPAISNLKLNFLMEIDDHFISKRLHQKWVVRDFYFLFENYSQLRFSLTFNSTSPEKTVTTLQERFPSPVETQSARILDEYAQRFNAKVVEKSHSLINSHIGAKNFVSQIVSEFKDEVIQPIGARTFGATILSYKPEEGIEQLMKSLQKIKPGDILVIRKAKFEAHKKIGKNEIINVGMDSAAPYSSVVTDYDFTKNKFRVIENHEGKIIQNSYKLSHMKSGKLKVFRIVARGYVGW
**Q.** Which results are given for B1?
**A.** Ratio Swap/WT Flag (Abp1 (1xFLAG)): 0.7943; Flag (2 bands) (Abp1 (1xFLAG)): 76893; relative_to_wt, D_minus_WT ([1]; Bathophenanthroline 0.1uM, D = SH3 deletion (all SH3s deleted for multi-SH3 proteins), log2 colony size, 74 h at 37 °C, n = 12): -0.7326; relative_to_wt, KO_minus_WT ([1]; Bathophenanthroline 0.1uM, KO = gene deletion, log2 colony size, 74 h at 37 °C, n = 12): -0.7845; Growth (Fig. S2D) ([1]; Bathophenanthroline.0.1uM): 10.8555; Growth (Fig. S2D) ([1]; Bathophenanthroline.10uM): 10.7329; Growth (Fig. S2D) ([1]; Bathophenanthroline.1uM): 10.8406; Growth (Fig. S2D) ([1]; CaCl2.100mM): 10.8635; Growth (Fig. S2D) ([1]; CaCl2.250mM): 10.7473; Growth (Fig. S2D) ([1]; CaCl2.500mM): 10.2321; Growth (Fig. S2D) ([1]; Caffein.10mM): 10.0361; Growth (Fig. S2D) ([1]; Caffein.2mM): 11.0328; Growth (Fig. S2D) ([1]; CdCl2.100uM): 9.446; Growth (Fig. S2D) ([1]; CdCl2.10uM): 10.9111; Growth (Fig. S2D) ([1]; CdCl2.50uM): 9.87; Growth (Fig. S2D) ([1]; CuSO4.1mM): 10.4195; Growth (Fig. S2D) ([1]; CuSO4.5mM): 7.7318; Growth (Fig. S2D) ([1]; Cycloheximide.0.05.uM): 11.1604; Growth (Fig. S2D) ([1]; Cycloheximide.0.2.uM): 10.7217; Growth (Fig. S2D) ([1]; Cycloheximide.0.5.uM): 10.1165; Growth (Fig. S2D) ([1]; DMSO.2.): 11.0262; Growth (Fig. S2D) ([1]; DMSO.6.): 9.821; Growth (Fig. S2D) ([1]; DMSO.8.): 9.042; Growth (Fig. S2D) ([1]; Ethanol.2.): 10.863; Growth (Fig. S2D) ([1]; Ethanol.6.): 10.43; Growth (Fig. S2D) ([1]; Ethanol.8.): 10.2184; Growth (Fig. S2D) ([1]; Galactose.2.): 10.7901; Growth (Fig. S2D) ([1]; Glycerol.2.): 9.731; Growth (Fig. S2D) ([1]; Hydroxyurea.25mM): 10.7777; Growth (Fig. S2D) ([1]; Hygromycin.190uM): 11.0445; Growth (Fig. S2D) ([1]; Hygromycin.19uM): 11.0769; Growth (Fig. S2D) ([1]; Hygromycin.95uM): 11.0543; Growth (Fig. S2D) ([1]; MMS.0.004.): 10.9787; Growth (Fig. S2D) ([1]; MMS.0.02.): 10.743; Growth (Fig. S2D) ([1]; MMS.0.04.): 9.98; Growth (Fig. S2D) ([1]; Menadione.100uM): 10.5737; Growth (Fig. S2D) ([1]; Menadione.200uM): 10.4364; Growth (Fig. S2D) ([1]; Menadione.50uM): 10.8865; Growth (Fig. S2D) ([1]; NaCl.0.25M): 10.7759; Growth (Fig. S2D) ([1]; NaCl.1M): 9.566; Growth (Fig. S2D) ([1]; Nitroquinoline.10uM): 10.676; Growth (Fig. S2D) ([1]; Nitroquinoline.50uM): 10.6106; Growth (Fig. S2D) ([1]; Nystatin.0.01uM): 10.9601; Growth (Fig. S2D) ([1]; Nystatin.0.1uM): 11.003; Growth (Fig. S2D) ([1]; Raffinose.2.): 11.0344; Growth (Fig. S2D) ([1]; Rapamycin.10nM): 9.767; Growth (Fig. S2D) ([1]; Rapamycin.50nM): 9.406; Growth (Fig. S2D) ([1]; SC.pH3): 10.4328; Growth (Fig. S2D) ([1]; SC.pH6): 11.0565; Growth (Fig. S2D) ([1]; SDS.0.01.): 11.0008; Growth (Fig. S2D) ([1]; SDS.0.02.): 11.0385; Growth (Fig. S2D) ([1]; SDS.0.05.): 10.9076; Growth (Fig. S2D) ([1]; Sorbitol.10mM): 11.0218; Growth (Fig. S2D) ([1]; Sorbitol.1mM): 10.99; Growth (Fig. S2D) ([1]; Sorbitol.5mM): 10.8909

B2: WT (protein, UniProt P15891 2-592, looked up)
Actin-binding protein: ALEPIDYTTHSREIDAEYLKIVRGSDPDTTWLIISPNAKKEYEPESTGSSFHDFLQLFDETKVQYGLARVSPPGSDVEKIIIIGWCPDSAPLKTRASFAANFAAVANNLFKGYHVQVTARDEDDLDENELLMKISNAAGARYSIQTSSKQQGKASTPPVKKSFTPSKSPAPVSKKEPVKTPSPAPAAKISSRVNDNNDDDDWNEPELKERDFDQAPLKPNQSSYKPIGKIDLQKVIAEEKAKEDPRLVQKPTAAGSKIDPSSDIANLKNESKLKRDSEFNSFLGTTKPPSMTESSLKNDDDKVIKGFRNEKSPAQLWAERKAKQNSGNAETKAEAPKPEVPEDEPEGEPDVKDLKSKFEGLAASEKEEEEMENKFAPPPKKSEPTIISPKPFSKPQEPVKAEEAEQPKTDYKKIGNPLPGMHIEADNEEEPEENDDDWDDDEDEAAQPPLPSRNVASGAPVQKEEPEQEEIAPSLPSRNSIPAPKQEEAPEQAPEEEIEEEAEEAAPQLPSRSSAAPPPPPRRATPEKKPKENPWATAEYDYDAAEDNELTFVENDKIINIEFVDDDWWLGELEKDGSKGLFPSNYVSLGN
**Q.** B2 was tested. Which “Ratio Swap/WT Flag” value (Abp1 (1xFLAG)) did it give?
**A.** 0.6226

**Q.** What about the “Flag (2 bands)” value (Abp1 (1xFLAG)) of the same molecule?
**A.** 60270
